From IntAct's records for PubMed 31515488

B1: Transcription factor 12 (Homo sapiens), Q99081 (parent)
chain: MNPQQQRMAAIGTDKELSDLLDFSAMFSPPVNSGKTRPTTLGSSQFSGSGIDERGGTTSWGTSGQPSPSYDSSRGFTDSPHYSDHLNDSRLGAHEGLSPTPFMNSNLMGKTSERGSFSLYSRDTGLPGCQSSLLRQDLGLGSPAQLSSSGKPGTAYYSFSATSSRRRPLHDSAALDPLQAKKVRKVPPGLPSSVYAPSPNSDDFNRESPSYPSPKPPTSMFASTFFMQDGTHNSSDLWSSSNGMSQPGFGGILGTSTSHMSQSSSYGNLHSHDRLSYPPHSVSPTDINTSLPPMSSFHRGSTSSSPYVAASHTPPINGSDSILGTRGNAAGSSQTGDALGKALASIYSPDHTSSSFPSNPSTPVGSPSPLTGTSQWPRPGGQAPSSPSYENSLHSLQSRMEDRLDRLDDAIHVLRNHAVGPSTSLPAGHSDIHSLLGPSHNAPIGSLNSNYGGSSLVASSRSASMVGTHREDSVSLNGNHSVLSSTVTTSSTDLNHKTQENYRGGLQSQSGTVVTTEIKTENKEKDENLHEPPSSDDMKSDDESSQKDIKVSSRGRTSSTNEDEDLNPEQKIEREKERRMANNARERLRVRDINEAFKELGRMCQLHLKSEKPQTKLLILHQAVAVILSLEQQVRERNLNPKAACLKRREEEKVSAVSAEPPTTLPGTHPGLSETTNPMGHM
B2: Seipin (Homo sapiens), Q96G97-4 (parent)
chain: MSTEKVDQKEEAGEKEVCGDQIKGPDKEEEPPAAASHGQGWRPGGRAARNARPEPGARHPALPAMVNDPPVPALLWAQEVGQVLAGRARRLLLQFGVLFCTILLLLWVSVFLYGSFYYSYMPTVSHLSPVHFYYRTDCDSSTTSLCSFPVANVSLTKGGRDRVLMYGQPYRVTLELELPESPVNQDLGMFLVTISCYTRGGRIISTSSRSVMLHYRSDLLQMLDTLVFSSLLLFGFAEQKQLLEVELYADYRENSYVPTTGAIIEIHSKRIQLYGAYLRIHAHFTGLRYLLYNFPMTCAFIGVASNFTFLSVIVLFSYMQWVWGGIWPRHRFSLQVNIRKRDNSRKEVQRRISAHQPGPEGQEESTPQSDVTEDGESPEDPSGTEGQLSEEEKPDQQPLSGEEELEPEASDGSGSWEDAALLTEANLPAPAPASASAPVLETLGSSEPAGGALRQRPTCSSS
B3: Regulator of G-protein signaling 20 (Homo sapiens), O76081 (parent)
chain: MPQLSQDNQECLQKHFSRPSIWTQFLPLFRAQRYNTDIHQITENEGDLRAVPDIKSFPPAQLPDSPAAPKLFGLLSSPLSSLARFFSHLLRRPPPEAPRRRLDFSPLLPALPAARLSRGHEELPGRLSLLLGAALALPGRPSGGRPLRPPHPVAKPREEDATAGQSSPMPQMGSERMEMRKRQMPAAQDTPGAAPGQPGAGSRGSNACCFCWCCCCSCSCLTVRNQEDQRPTIASHELRADLPTWEESPAPTLEEVNAWAQSFDKLMVTPAGRNAFREFLRTEFSEENMLFWMACEELKKEANKNIIEEKARIIYEDYISILSPKEVSLDSRVREVINRNMVEPSQHIFDDAQLQIYTLMHRDSYPRFMNSAVYKDLLQSLSEKSIEA
partner: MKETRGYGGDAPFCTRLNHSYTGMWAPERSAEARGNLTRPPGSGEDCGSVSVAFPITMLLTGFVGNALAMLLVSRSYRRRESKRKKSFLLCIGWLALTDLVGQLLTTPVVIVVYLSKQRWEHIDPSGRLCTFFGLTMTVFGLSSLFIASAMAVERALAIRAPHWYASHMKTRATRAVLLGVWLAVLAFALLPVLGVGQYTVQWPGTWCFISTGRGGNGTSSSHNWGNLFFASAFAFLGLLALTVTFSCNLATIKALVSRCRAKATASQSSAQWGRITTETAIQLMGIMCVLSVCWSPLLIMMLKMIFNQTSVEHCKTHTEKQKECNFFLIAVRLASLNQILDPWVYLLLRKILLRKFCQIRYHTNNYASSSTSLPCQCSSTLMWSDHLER
B4: Nuclear RNA export factor 3 (Homo sapiens), Q9H4D5 (parent)
chain: MSLPSGHTTGHTDQVVQRRARCWDIYQRRFSSRSEPVNPGMHSSSHQQQDGDAAMHGAHMDSPVRYTPYTISPYNRKGSFRKQDQTHVNMEREQKPPERRMEGNMPDGTLGSWFKITVPFGIKYNEKWLLNLIQNECSVPFVPVEFHYENMHASFFVENASIAYALKNVSGKIWDEDNEKISIFVNPAGIPHFVHRELKSEKVEQIKLAMNQQCDVSQEALDIQRLPFYPDMVNRDTKMASNPRKCMAASLDVHEENIPTVMSAGEMDKWKGIEPGEKCADRSPVCTTFSDTSSNINSILELFPKLLCLDGQQSPRATLCGTEAHKRLPTCKGSFFGSEMLKNLVLQFLQQYYLIYDSGDRQGLLSAYHDEACFSLSIPFNPEDSAPSSFCKFFKDSRNIKILKDPYLRGELLKHTKLDIVDSLSALPKTQHDLSSFLVDMWYQTEWMLCFSVNGVFKEVEGQSQGSVLAFTRTFIATPGSSSSLCIVNDKLFVRDTSHQGTQSALFTLVPTAFSSSVPAFSQEQQKMLPS
partner: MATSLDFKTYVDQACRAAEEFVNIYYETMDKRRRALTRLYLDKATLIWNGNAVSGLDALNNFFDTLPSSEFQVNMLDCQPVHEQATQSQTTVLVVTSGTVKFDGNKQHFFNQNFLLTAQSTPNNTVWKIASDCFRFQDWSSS
B5: Ligand of Numb protein X 2 (Homo sapiens), Q8N448 (parent)
chain: MGTTSDEMVSVEQTSSSSLNPLCFECGQQHWTRENHLYNYQNEVDDDLVCHICLQPLLQPLDTPCGHTFCYKCLRNFLQEKDFCPLDRKRLHFKLCKKSSILVHKLLDKLLVLCPFSSVCKDVMQRCDLEAHLKNRCPGASHRRVALERRKTSRTQAEIENENGPTLLDPAGTLSPEADCLGTGAVPVERHLTSASLSTWSEEPGLDNPAFEESAGADTTQQPLSLPEGEITTIEIHRSNPYIQLGISIVGGNETPLINIVIQEVYRDGVIARDGRLLAGDQILQVNNYNISNVSHNYARAVLSQPCNTLHLTVLRERRFGNRAHNHSDSNSPREEIFQVALHKRDSGEQLGIKLVRRTDEPGVFILDLLEGGLAAQDGRLSSNDRVLAINGHDLKYGTPELAAQIIQASGERVNLTIARPGKPQPGNTIREAGNHSSSSQHHTPPPYYSRPSSHKDLTQCVTCQEKHITVKKEPHESLGMTVAGGRGSKSGELPIFVTSVPPHGCLARDGRIKRGDVLLNINGIDLTNLSHSEAVAMLKASAASPAVALKALEVQIVEEATQNAEEQPSTFSENEYDASWSPSWVMWLGLPSTLHSCHDIVLRRSYLGSWGFSIVGGYEENHTNQPFFIKTIVLGTPAYYDGRLKCGDMIVAVNGLSTVGMSHSALVPMLKEQRNKVTLTVICWPGSLV
partner: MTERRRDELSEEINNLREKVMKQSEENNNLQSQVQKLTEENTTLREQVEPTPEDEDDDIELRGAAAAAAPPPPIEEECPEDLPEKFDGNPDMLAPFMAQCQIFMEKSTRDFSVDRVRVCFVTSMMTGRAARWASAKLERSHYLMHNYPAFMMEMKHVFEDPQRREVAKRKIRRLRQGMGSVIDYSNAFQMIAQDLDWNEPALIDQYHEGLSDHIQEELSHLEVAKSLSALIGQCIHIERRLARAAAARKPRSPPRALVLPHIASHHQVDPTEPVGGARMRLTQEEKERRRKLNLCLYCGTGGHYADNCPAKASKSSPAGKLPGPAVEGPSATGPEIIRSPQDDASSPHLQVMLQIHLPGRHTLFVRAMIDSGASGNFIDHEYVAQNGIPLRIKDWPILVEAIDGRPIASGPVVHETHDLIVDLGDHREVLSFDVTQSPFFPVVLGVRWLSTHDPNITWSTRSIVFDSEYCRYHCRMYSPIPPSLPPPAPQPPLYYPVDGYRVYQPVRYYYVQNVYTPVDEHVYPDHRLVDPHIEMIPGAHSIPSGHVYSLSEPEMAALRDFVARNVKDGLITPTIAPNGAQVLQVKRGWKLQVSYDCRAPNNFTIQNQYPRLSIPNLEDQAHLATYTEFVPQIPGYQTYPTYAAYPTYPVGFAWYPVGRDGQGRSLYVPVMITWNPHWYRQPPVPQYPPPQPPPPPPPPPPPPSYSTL
B6: Protein LDOC1 (Homo sapiens), O95751 (parent)
chain: MVDELVLLLHALLMRHRALSIENSQLMEQLRLLVCERASLLRQVRPPSCPVPFPETFNGESSRLPEFIVQTASYMLVNENRFCNDAMKVAFLISLLTGEAEEWVVPYIEMDSPILGDYRAFLDEMKQCFGWDDDEDDDDEEEEDDY
partner: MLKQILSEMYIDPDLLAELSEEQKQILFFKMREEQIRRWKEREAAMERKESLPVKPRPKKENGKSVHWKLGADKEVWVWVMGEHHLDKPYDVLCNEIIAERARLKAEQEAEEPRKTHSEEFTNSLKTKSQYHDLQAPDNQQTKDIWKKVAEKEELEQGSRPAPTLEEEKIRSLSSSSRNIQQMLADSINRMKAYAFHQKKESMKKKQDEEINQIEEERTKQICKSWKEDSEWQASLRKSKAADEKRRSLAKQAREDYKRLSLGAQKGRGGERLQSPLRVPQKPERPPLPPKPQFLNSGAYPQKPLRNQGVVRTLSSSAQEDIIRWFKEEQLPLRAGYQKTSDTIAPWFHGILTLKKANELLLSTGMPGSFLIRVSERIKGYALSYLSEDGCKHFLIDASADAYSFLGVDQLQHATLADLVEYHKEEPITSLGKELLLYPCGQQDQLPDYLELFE
B7: Peroxisomal bifunctional enzyme (Homo sapiens), Q08426 (parent)
chain: MAEYTRLHNALALIRLRNPPVNAISTTLLRDIKEGLQKAVIDHTIKAIVICGAEGKFSAGADIRGFSAPRTFGLTLGHVVDEIQRNEKPVVAAIQGMAFGGGLELALGCHYRIAHAEAQVGLPEVTLGLLPGARGTQLLPRLTGVPAALDLITSGRRILADEALKLGILDKVVNSDPVEEAIRFAQRVSDQPLESRRLCNKPIQSLPNMDSIFSEALLKMRRQHPGCLAQEACVRAVQAAVQYPYEVGIKKEEELFLYLLQSGQARALQYAFFAERKANKWSTPSGASWKTASARPVSSVGVVGLGTMGRGIVISFARARIPVIAVDSDKNQLATANKMITSVLEKEASKMQQSGHPWSGPKPRLTSSVKELGGVDLVIEAVFEEMSLKKQVFAELSAVCKPEAFLCTNTSALDVDEIASSTDRPHLVIGTHFFSPAHVMKLLEVIPSQYSSPTTIATVMNLSKKIKKIGVVVGNCFGFVGNRMLNPYYNQAYFLLEEGSKPEEVDQVLEEFGFKMGPFRVSDLAGLDVGWKSRKGQGLTGPTLLPGTPARKRGNRRYCPIPDVLCELGRFGQKTGKGWYQYDKPLGRIHKPDPWLSKFLSRYRKTHHIEPRTISQDEILERCLYSLINEAFRILGEGIAASPEHIDVVYLHGYGWPRHKGGPMFYASTVGLPTVLEKLQKYYRQNPDIPQLEPSDYLKKLASQGNPPLKEWQSLAGSPSSKL
partner: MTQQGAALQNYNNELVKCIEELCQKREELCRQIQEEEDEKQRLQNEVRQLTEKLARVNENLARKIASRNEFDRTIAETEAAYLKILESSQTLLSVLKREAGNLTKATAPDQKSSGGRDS

Variants of: B1
Settings: with psa1_human PSMA1, P25786
Sequence of psa1_human PSMA1, P25786 (P25786 whole entry): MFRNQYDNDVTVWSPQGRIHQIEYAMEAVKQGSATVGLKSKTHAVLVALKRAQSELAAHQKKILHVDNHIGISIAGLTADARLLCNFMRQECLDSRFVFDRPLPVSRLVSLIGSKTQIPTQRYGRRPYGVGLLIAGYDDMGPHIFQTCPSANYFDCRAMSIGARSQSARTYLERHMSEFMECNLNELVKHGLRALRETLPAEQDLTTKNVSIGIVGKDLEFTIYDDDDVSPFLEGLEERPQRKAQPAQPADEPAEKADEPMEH

| effect of a mutation on the interaction | Variant |
| --- | --- |
| with no effect | D565V |

Variants of: B1
Settings: with cdn2c_human CDKN2C

| effect of a mutation on the interaction | Variant |
| --- | --- |
| with no effect | D565V |

Variants of: B2
Settings: with bscl2_human BSCL2, Q96G97

| effect of a mutation on the interaction | Variant |
| --- | --- |
| with no effect | D20E |

Variants of: B2
Settings: with tmm19_human TMEM19, Q96HH6
Sequence of tmm19_human TMEM19, Q96HH6 (Q96HH6 whole entry): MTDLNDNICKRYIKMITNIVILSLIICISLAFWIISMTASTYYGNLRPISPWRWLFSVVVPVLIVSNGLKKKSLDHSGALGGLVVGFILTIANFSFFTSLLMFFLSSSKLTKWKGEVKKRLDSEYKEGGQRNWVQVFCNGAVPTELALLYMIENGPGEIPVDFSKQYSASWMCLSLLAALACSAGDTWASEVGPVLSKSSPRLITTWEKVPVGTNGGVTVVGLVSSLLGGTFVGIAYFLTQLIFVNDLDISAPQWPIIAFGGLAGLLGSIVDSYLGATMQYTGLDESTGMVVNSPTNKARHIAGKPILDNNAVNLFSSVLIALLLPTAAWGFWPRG

| effect of a mutation on the interaction | Variant |
| --- | --- |
| with no effect | D20E |

Variants of: B3
Settings: with pe2r3_human PTGER3, P43115

| effect of a mutation on the interaction | Variant |
| --- | --- |
| with no effect | H347Y |

Variants of: B4
Settings: with nxt2_human NXT2, Q9NPJ8

| effect of a mutation on the interaction | Variant |
| --- | --- |
| disrupting interaction strength | R409W |

Variants of: B4
Settings: with nxt2_human NXT2, Q9NPJ8
Remark: another data set of the same source

| effect of a mutation on the interaction | Variant |
| --- | --- |
| with no effect | T9K |

Variants of: B5
Settings: with peg10_human PEG10, Q86TG7

| effect of a mutation on the interaction | Variant |
| --- | --- |
| with no effect | T183I |
| with no effect | V145I |

Variants of: B6
Settings: with sh24a_human SH2D4A

| effect of a mutation on the interaction | Variant |
| --- | --- |
| disrupting interaction strength | L12H |

Variants of: B7
Settings: with ssna1_human SSNA1, O43805

| effect of a mutation on the interaction | Variant |
| --- | --- |
| with no effect | R556G |
